Results: article PMC5126634

How the values were obtained:
His51 [1] = molecular target: His51 (UniProt position 1526, FHTMWHVTRGA); test: kinetics; conditions: 37 °C, multicomponent buffer: 100 mM acetate, 100 mM MES, 100 mM HEPES, 100 mM CHES, 100 mM CAPS
His51 [2] = test: kinetics; conditions: 37 °C, multicomponent buffer: 100 mM acetate, 100 mM MES, 100 mM HEPES, 100 mM CHES, 100 mM CAPS
[3] = enzyme-substrate complex (pKes1, from kcat)
[4] = free enzyme (pKe1, from kcat/Km)

| Substance | pKa (His51 [1]; [3]) | pKa (His51 [1]; [4]) | pKa (His51 [2]; [3]) | pKa (His51 [2]; [4]) |
| --- | --- | --- | --- | --- |
| Dengue virus 2 NS2B-NS3 protease, glycine-linked (NS2BH-gly-NS3pro) (Dengue virus 2 (DENV2)) | 8.6 ± 0.4 | 8.1 ± 0.3 |  |  |
| Dengue virus 2 NS2B-NS3 protease, unlinked complex (NS2BH + NS3pro) (Dengue virus 2 (DENV2)) |  |  | 8.2 ± 0.1 | 8.7 ± 0.7 |
